Measurements from patent US20220289833A1 (BIOSION, published 2022).
Changes are numbered by the printed parent chain.

T1: Recombinant cynomolgus monkey TSLP-his (cynomolgus monkey)
T1 construct: Prepared in-house; Amine-coupled to CM5 chip in SPR, coated on plates in the indirect ELISA; also called cynomolgus TSLP; cynomolgus TSLP-his protein
T1 chain: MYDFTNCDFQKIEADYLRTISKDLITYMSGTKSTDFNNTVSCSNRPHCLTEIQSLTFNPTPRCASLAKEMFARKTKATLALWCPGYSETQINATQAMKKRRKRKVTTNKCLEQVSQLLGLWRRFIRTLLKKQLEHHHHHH

B1: hu1C5F12E9-V8 (IgG4) (antibody)
heavy: not shown
light: DIQMTQSPSSLSASVGDRVTITCRPTENIYSYLAWYQQKPGKAPKLLIYFARTLAEGVPSRFSGSGSGTDFTLTISSLQPEDFATYYCQHHYGTPWTFGGGTKVEIKRTVAAPSVFIFPPSDEQLKSGTASVVCLLNNFYPREAKVQWKVDNALQSGNSQESVTEQDSKDSTYSLSSTLTLSKADYEKHKVYACEVTHQGLSSPVTKSFNRGEC
notes: also called huC5F12E9-V8
B2: hu1C5F12E9-V14 (IgG4) (antibody)
heavy: not shown
light: B1 light with A43S
notes: also called huC5F12E9-V14
B3: hu1C5F12E9-V16 (antibody, human IgG4 S228P, kappa, V domains shown)
VH: QVQLVQSGAEVKKPGASVKVSCKASGYTFTTYWMHWVRQAPGQGLEWMGVIDPSDSDTTYNQKFKGRATMTRDTSTSTVYMELSSLRSEDTAVYYCTRSLDGYYDYWGQGTLVTVSS
VL: DIQMTQSPSSLSASVGDRVTITCRPTENIYSYLAWYQQKPGKSPKLLIYFARTLAEGVPSRFSGSGSGTDFTLTISSLQPEDFATYYCQHHYGTPWTFGGGTKVEIKR
B4: hu1C5F12E9-V1 (antibody, human IgG4 S228P, kappa, V domains shown)
VH: B3 VH with M48I, M70L, R72V, T76S, V79A
VL: B3 VL with I48V
B5: hu1C5F12E9-V3 (antibody, human IgG4 S228P, kappa, V domains shown)
VH: B3 VH with A68V, R72V
VL: B3 VL with I48V
B6: hu1C5F12E9-V5 (antibody, human IgG4 S228P, kappa, V domains shown)
VH: B3 VH with R67K
VL: B3 VL with I48V
B7: hu1C5F12E9-V7 (antibody, human IgG4 S228P, kappa, V domains shown)
VH: B3 VH with M48I, M70L, R72V, T76S, V79A
VL: B3 VL with S43A
B8: hu1C5F12E9-V9 (antibody, human IgG4 S228P, kappa, V domains shown)
VH: B3 VH with A68V, R72V
VL: B3 VL with S43A
B9: hu1C5F12E9-V11 (antibody, human IgG4 S228P, kappa, V domains shown)
VH: B3 VH with R67K
VL: B3 VL with S43A
B10: hu1C5F12E9-V12 (antibody, human IgG4 S228P, kappa, V domains shown)
VH: B3 VH with R67K, R72V
VL: B3 VL with S43A
B11: hu1C5F12E9-V13 (antibody, human IgG4 S228P, kappa, V domains shown)
VH: B3 VH with M48I, M70L, R72V, T76S, V79A
VL: B3 VL
B12: hu1C5F12E9-V15 (antibody, human IgG4 S228P, kappa, V domains shown)
VH: B3 VH with A68V, R72V
VL: B3 VL
B13: hu1C5F12E9-V17 (antibody, human IgG4 S228P, kappa, V domains shown)
VH: B3 VH with R67K
VL: B3 VL
B14: hu1C5F12E9-V18 (antibody, human IgG4 S228P, kappa, V domains shown)
VH: B3 VH with R67K, R72V
VL: B3 VL
B15: 1F5H12D7 (antibody, V domains shown)
VH: QVQLQQPGTELVKPGASVKMSCKASGYTFTTYWMHWVKQRPGQGLEWIGVIDPSDSDTTYNQKFKGKATLTVDTSSSTAYMQLSSLTSEDSAVYYCTRSLDGYYDYWGQGTTLTVSS
VL: DIQMTQSPASLSASVGETVTITCRPTENIYSYLAWYQQKQGKSPHLLVYFARTLAEGVPSRFSGSGSGTQFSLKINSLQPEDFGIYYCQHHYGTPWTFGGGTKLEIK
B16: 1H3F11B7 (antibody, V domains shown)
VH: B15 VH
VL: B15 VL
notes: Mouse hybridoma mAb
B17: 1G3B9B1 (antibody, V domains shown)
VH: B15 VH
VL: B15 VL
notes: Mouse hybridoma mAb
B18: 1G2H12A1 (antibody, V domains shown)
VH: B15 VH
VL: B15 VL
notes: Mouse hybridoma mAb
B19: hu1C5F12E9-V8 (IgG1) (antibody)
heavy: not shown
light: B1 light
notes: Humanized, human IgG1/kappa
B20: hu1C5F12E9-V14 (IgG1) (antibody)
heavy: not shown
light: B1 light with A43S
notes: Humanized, human IgG1/kappa

Each binder was assayed against T2, Recombinant human TSLP-his (human, UniProt Q969D9 29-159) (assay: SPR, BIAcore; protocol of Example 2).
T2 construct: Prepared in-house; Amine-coupled to CM5 chip in SPR, loaded on APS sensors in Octet, biotin-labeled in the capture ELISA, unlabeled in the cell functional assays; also called human TSLP-his protein
B1 gave a Kd of less than 0.0598 nM. B2 gave a Kd of less than 0.061 nM, a koff of less than 1e-05 s⁻¹ and a kon of 164000 M⁻¹ s⁻¹.

Molecular target: T1, Recombinant cynomolgus monkey TSLP-his
Test: SPR, BIAcore; protocol of Example 2
Work on B1 yielded a Kd of less than 0.0328 nM. With B2 the Kd was less than 0.0322 nM, the koff was less than 1e-05 s⁻¹ and the kon was 311000 M⁻¹ s⁻¹.

What follows are binders tested against T2, Recombinant human TSLP-his (assay: SPR, Biacore T200; protocol of Example 2).
B2 was tested, and the Kd was less than 0.0956 nM, the koff was less than 1e-05 s⁻¹ and the kon was 105000 M⁻¹ s⁻¹. Work on B3 yielded a Kd of less than 0.0962 nM, a koff of less than 1e-05 s⁻¹ and a kon of 104000 M⁻¹ s⁻¹. With B4 the Kd was less than 0.101 nM, the koff was less than 1e-05 s⁻¹ and the kon was 99300 M⁻¹ s⁻¹. For B5, the Kd was less than 0.0971 nM, the koff was less than 1e-05 s⁻¹ and the kon was 103000 M⁻¹ s⁻¹. Work on B6 yielded a Kd of less than 0.0971 nM, a koff of less than 1e-05 s⁻¹ and a kon of 103000 M⁻¹ s⁻¹. For B7, the Kd was less than 0.0926 nM, the koff was less than 1e-05 s⁻¹ and the kon was 108000 M⁻¹ s⁻¹. Binder B8 has a Kd of less than 0.082 nM, a koff of less than 1e-05 s⁻¹ and a kon of 122000 M⁻¹ s⁻¹. B9 was tested, and the Kd was less than 0.11 nM, the koff was less than 1e-05 s⁻¹ and the kon was 90700 M⁻¹ s⁻¹. Work on B10 yielded a Kd of less than 0.104 nM, a koff of less than 1e-05 s⁻¹ and a kon of 96100 M⁻¹ s⁻¹. B11 was tested, and the Kd was less than 0.0962 nM, the koff was less than 1e-05 s⁻¹ and the kon was 104000 M⁻¹ s⁻¹. Binder B12 has a Kd of less than 0.0893 nM, a koff of less than 1e-05 s⁻¹ and a kon of 112000 M⁻¹ s⁻¹. For B13, the Kd was less than 0.0909 nM, the koff was less than 1e-05 s⁻¹ and the kon was 110000 M⁻¹ s⁻¹. For B14, the Kd was less than 0.0826 nM, the koff was less than 1e-05 s⁻¹ and the kon was 121000 M⁻¹ s⁻¹.

Molecular target: T1, Recombinant cynomolgus monkey TSLP-his
Test: indirect ELISA on coated cynomolgus TSLP-his
In the case of B1, the EC50 is reported as 0.17 nM. B2 gave an EC50 of 0.151 nM.

The binders below were run against T2, Recombinant human TSLP-his (assay: SPR, Biacore T200; below the instrument limit, roughly calculated from the sensorgram).
B2 gave a koff of roughly 3.21e-06 s⁻¹. For B3, the koff was roughly 1.17e-06 s⁻¹. In the case of B4, the koff is reported as less than 1e-05 s⁻¹. With B5 the koff was less than 1e-05 s⁻¹. B6 showed a koff of less than 1e-05 s⁻¹. Binder B7 has a koff of less than 1e-05 s⁻¹. In the case of B8, the koff is reported as roughly 6.57e-07 s⁻¹. B9 was tested, and the koff was roughly 7.56e-07 s⁻¹. For B10, the koff was less than 1e-05 s⁻¹. B11 was tested, and the koff was roughly 3.62e-07 s⁻¹. B12 was tested, and the koff was roughly 3.63e-06 s⁻¹. In the case of B13, the koff is reported as roughly 6.43e-06 s⁻¹. B14 showed a koff of roughly 9.65e-06 s⁻¹.

The binders below were run against T2, Recombinant human TSLP-his (assay: SPR, Biacore T200; TSLP-his amine-coupled to CM5 chip, antibody as analyte; 1:1 Langmuir fit).
For B15, the Kd was less than 0.112 nM, the koff was less than 1e-05 s⁻¹ and the kon was 89700 M⁻¹ s⁻¹. Binder B16 has a Kd of less than 0.108 nM, a koff of less than 1e-05 s⁻¹ and a kon of 92900 M⁻¹ s⁻¹. In the case of B17, the Kd is reported as less than 0.107 nM, the koff is reported as less than 1e-05 s⁻¹ and the kon is reported as 93600 M⁻¹ s⁻¹. Work on B18 yielded a Kd of less than 0.117 nM, a koff of less than 1e-05 s⁻¹ and a kon of 85200 M⁻¹ s⁻¹.

These binders were tested against T3, human TSLP-Fc (human, biotin-labeled) (assay: competitive ELISA: antibody pre-mixed with biotin-labeled human TSLP-Fc; blocked binding to coated Tezepelumab).
T3 construct: Prepared in-house; also called biotin-labeled human TSLP-Fc; TSLP-Fc-biotin
Binder B1 has an IC50 of 0.381 nM. For B2, the IC50 was 0.403 nM.

Molecular target: T3, human TSLP-Fc
Test: as above
Remark: another data set of the same source
In the case of B1, the IC50 is reported as 1.06 nM. Binder B2 has an IC50 of 0.909 nM. For B19, the IC50 was 0.78 nM. Binder B20 has an IC50 of 0.806 nM.

These binders were tested against T2, Recombinant human TSLP-his (assay: capture ELISA: antibody captured on anti-IgG Fc coat, biotin-labeled human TSLP-his detected with streptavidin-HRP).
B1 showed an EC50 of 0.173 nM. B2 showed an EC50 of 0.169 nM.

Molecular target: T2, Recombinant human TSLP-his
Test: as above
Remark: another data set of the same source
B1 gave an EC50 of 0.124 nM. B2 was tested, and the EC50 was 0.102 nM. In the case of B19, the EC50 is reported as 0.116 nM. B20 gave an EC50 of 0.11 nM.

These binders were tested against T3, human TSLP-Fc (assay: competitive ELISA: antibody pre-mixed with biotin-labeled human TSLP-Fc; blocked binding to coated human TSLPR-Fc/IL7Ra-Fc).
B1 showed an IC50 of 0.145 nM. B2 was tested, and the IC50 was 0.123 nM.

Molecular target: T3, human TSLP-Fc
Test: as above
Remark: another data set of the same source
With B2 the IC50 was 0.958 nM. B19 was tested, and the IC50 was 0.707 nM. B20 was tested, and the IC50 was 0.758 nM.

The binders below were run against T3, human TSLP-Fc (assay: cell-based ligand-blocking FACS: antibody pre-mixed with human TSLP-Fc; blocked binding to BAF3-3E6 cells expressing human TSLPR and IL7R).
With B1 the IC50 was 2.38 nM. With B2 the IC50 was roughly 3.07 nM.

Molecular target: T3, human TSLP-Fc
Test: as above
Remark: another data set of the same source
B1 showed an IC50 of roughly 1.1 nM. B2 was tested, and the IC50 was roughly 1.09 nM. B19 showed an IC50 of roughly 1.12 nM. B20 was tested, and the IC50 was roughly 1.14 nM.
